Assay results published in US20250186541A1, “DLL3 TARGETING PEPTIDES AND CONSTRUCTS THEREOF” (MARIANA ONCOLOGY INC., priority 2023, published 2025).
Blank lines part the entries; values can stand above or below the binder they belong to. Numbered stars: 1 amine (or outer) side, 2 acyl side, 3 side chain; on linkers, the order of the positions; unused ones are H or OH. Bridge positions count the residues as written; N and C are the ends. Square brackets hold non-standard residues; d marks the D form. * marks the point of attachment. Ala(piperidin-4-yl) = O=C([C@H](CC1CCN([*:3])CC1)N[*:1])[*:2]; DOTA = O=C(O)CN1CCN(CC(=O)O)CCN(CC(=O)*)CCN(CC(=O)O)CC1; Phe(4-CF3) = N[C@@H](Cc1ccc(C(F)(F)F)cc1)C(=O)O; Trp(5-F) = N[C@@H](Cc1c[nH]c2ccc(F)cc12)C(=O)O; Trp(7-Me) = Cc1cccc2c(C[C@H](N)C(=O)O)c[nH]c12; 1Nal = N[C@@H](Cc1cccc2ccccc12)C(=O)O; 2Nal = N[C@@H](Cc1ccc2ccccc2c1)C(=O)O; NMeChg = CN[C@H](C(=O)O)C1CCCCC1; tBuAla = CC(C)(C)C[C@H](N)C(=O)O; αMeD = C[C@](N)(CC(=O)O)C(=O)O; AllylGly = C=CC[C@H](N)C(=O)O; PAF(DOTA) = not defined here; αMeP = C[C@@]1(C(=O)O)CCCN1; NMeS = CN[C@@H](CO)C(=O)O; PAF = not defined here; Ahx = NCCCCCC(=O)O

Key:
[1] = biological target: DLL3 on SHP-77 cells (human) (UniProt Q9NYJ7); experiment: 177Lu-labelled peptide on SHP-77 cells, 1 h 37 C, gamma count of bound fraction
Biotinylated human DLL3 [2] = biological target: T1, Biotinylated human DLL3 (human, UniProt Q9NYJ7 27-492, biotinylated (site not stated)); experiment: SPR, biotin-hDLL3 on SA chip; Cpd 56, a separate compound
T1 construct: also called Delta-like ligand 3; Delta Like Canonical Notch Ligand 3
T1 sequence (looked up): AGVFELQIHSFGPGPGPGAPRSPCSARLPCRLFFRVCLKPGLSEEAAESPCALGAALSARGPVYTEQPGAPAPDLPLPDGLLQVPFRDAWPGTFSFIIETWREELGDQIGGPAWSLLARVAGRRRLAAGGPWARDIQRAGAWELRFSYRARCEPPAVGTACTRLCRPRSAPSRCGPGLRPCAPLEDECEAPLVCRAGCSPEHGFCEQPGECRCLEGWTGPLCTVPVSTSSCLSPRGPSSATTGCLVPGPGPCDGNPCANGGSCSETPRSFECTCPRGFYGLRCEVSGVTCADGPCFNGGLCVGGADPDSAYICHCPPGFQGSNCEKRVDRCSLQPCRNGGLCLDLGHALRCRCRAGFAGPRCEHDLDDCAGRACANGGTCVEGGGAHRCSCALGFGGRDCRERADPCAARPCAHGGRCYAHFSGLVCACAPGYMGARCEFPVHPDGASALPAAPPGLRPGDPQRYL

Biotinylated human DLL3 [3] = biological target: T1, Biotinylated human DLL3; experiment: SPR, biotin-hDLL3 on SA chip; Cpd 58, a separate compound
Biotinylated human DLL3 [4] = biological target: T1, Biotinylated human DLL3; experiment: SPR, biotin-hDLL3 on SA chip; Cpd 59, a separate compound
[5] = biological target: Biotinylated human DLL3 (human) (UniProt Q9NYJ7); experiment: SPR, biotin-hDLL3 on SA chip

DLL3 on SHP-77 cells (human), sequence (Q9NYJ7 27-618 limits assumed): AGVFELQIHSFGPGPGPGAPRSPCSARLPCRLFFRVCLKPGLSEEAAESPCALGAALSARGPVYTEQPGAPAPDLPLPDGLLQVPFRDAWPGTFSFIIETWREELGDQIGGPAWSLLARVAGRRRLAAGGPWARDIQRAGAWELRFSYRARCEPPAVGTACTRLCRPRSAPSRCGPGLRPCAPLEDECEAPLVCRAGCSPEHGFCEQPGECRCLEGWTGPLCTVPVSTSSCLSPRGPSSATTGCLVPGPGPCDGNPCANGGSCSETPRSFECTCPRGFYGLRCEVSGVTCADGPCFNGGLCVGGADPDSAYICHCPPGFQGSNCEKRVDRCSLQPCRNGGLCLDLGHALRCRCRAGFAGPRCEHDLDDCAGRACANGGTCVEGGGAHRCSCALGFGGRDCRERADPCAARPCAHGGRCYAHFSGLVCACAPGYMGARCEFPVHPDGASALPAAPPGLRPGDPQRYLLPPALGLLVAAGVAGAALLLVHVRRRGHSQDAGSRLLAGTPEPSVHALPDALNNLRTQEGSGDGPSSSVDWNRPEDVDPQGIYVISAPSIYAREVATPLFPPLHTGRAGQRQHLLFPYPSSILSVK

B1: [177Lu]Lu-Cpd #191 (peptide)
peptide: Ac-[Ala(piperidin-4-yl)][NMeS]DC[1Nal][tBuAla][PAF(DOTA)][2Nal]NC[αMeP]FD-NH2
modifications: disulfide 4-10; reading uncertain; also: 177Lu chelated, printed as Ac-[3-(4-piperidinyl)-Ala]-(NMe-Ser)-D-C(3)-(1Nal)-(t-Bu-Ala)-[PAF(DOTA)]-(2Nal)-N-C(3)-(aMe-P)-F-D-CONH2; (3)=disulfide; 177Lu chelated
% Binding [1]: 10%

B2: [177Lu]Lu-Cpd #158 (peptide)
peptide: Ac-[dA]SDC[1Nal][tBuAla][PAF(DOTA)][2Nal]NC[αMeP]FD-NH2
modifications: disulfide 4-10; reading uncertain; also: 177Lu chelated, printed as Ac-(D-Ala)-S-D-C(3)-(1Nal)-(t-Bu-Ala)-[PAF(DOTA)]-(2Nal)-N-C(3)-(aMe-P)-F-D-CONH2; (3)=disulfide; 177Lu chelated
% Binding [1]: 25%

Binder: {DOTA}-[Ahx]SDC[1Nal][tBuAla][Ala(piperidin-4-yl)][2Nal]NC[αMeP]FD-NH2 (disulfide 4-10; also: 177Lu chelated) [[177Lu]Lu-Cpd #176]
% Binding [1]: 6%

Binder: Ac-[Ala(piperidin-4-yl)]SD[AllylGly][1Nal][tBuAla][PAF(DOTA)][2Nal]N[AllylGly][αMeP]FD-NH2 (staple 4-10; reading uncertain; also: 177Lu chelated) [[177Lu]Lu-Cpd #200]
% Binding [1]: 6%

B4: [177Lu]Lu-Cpd #192 (peptide)
peptide: Ac-[Ala(piperidin-4-yl)][NMeS]NC[1Nal][tBuAla][PAF(DOTA)][2Nal]DC[αMeP]FD-NH2
modifications: disulfide 4-10; reading uncertain; also: 177Lu chelated, printed as Ac-[3-(4-piperidinyl)-Ala]-(NMe-Ser)-N-C(3)-(1Nal)-(t-Bu-Ala)-[PAF(DOTA)]-(2Nal)-D-C(3)-(aMe-P)-F-D-CONH2; (3)=disulfide; 177Lu chelated
% Binding [1]: 9%

Binder: Ac-[dA][NMeS]D[AllylGly][1Nal][tBuAla][PAF(DOTA)][2Nal]N[AllylGly][αMeP]FD-NH2 (staple 4-10; reading uncertain; also: 177Lu chelated) [[177Lu]Lu-Cpd #195]
% Binding [1]: 7%

Binder: Ac-[dA]S[αMeD]C[1Nal][tBuAla]Q[2Nal]NC[αMeP]FD[dK](DOTA)-NH2 (disulfide 4-10; also: 177Lu chelated) [[177Lu]Lu-Cpd #168]
% Binding [1]: 8%

Binder: Ac-[dA]SDC[1Nal][tBuAla]A[2Nal]DC[αMeP]FD[dK](DOTA)-NH2 (disulfide 4-10; also: 177Lu chelated) [[177Lu]Lu-Cpd #166]
% Binding [1]: 7%

The remaining lines, values ahead:

Kd (Biotinylated human DLL3 [2]): 1.13 nM
B3: Cpd #56 (peptide)
peptide: Ac-MSDC[1Nal]LQWNCPFD[dK](DOTA)-NH2
modifications: disulfide 4-10
SMILES: CSCC[C@H](NC(C)=O)C(=O)N[C@@H](CO)C(=O)N[C@@H](CC(=O)O)C(=O)N[C@H]1CSSC[C@@H](C(=O)N2CCC[C@H]2C(=O)N[C@@H](Cc2ccccc2)C(=O)N[C@@H](CC(=O)O)C(=O)N[C@H](CCCCNC(=O)CN2CCN(CC(=O)O)CCN(CC(=O)O)CCN(CC(=O)O)CC2)C(N)=O)NC(=O)[C@H](CC(N)=O)NC(=O)[C@H](Cc2c[nH]c3ccccc23)NC(=O)[C@H](CCC(N)=O)NC(=O)[C@H](CC(C)C)NC(=O)[C@H](Cc2cccc3ccccc23)NC1=O

Kd (Biotinylated human DLL3 [3]): 42 nM
Binder: Ac-MSDC[Trp(5-F)]LQWNCPFD[dK](DOTA)-NH2 (disulfide 4-10) [Cpd #58]

Kd (Biotinylated human DLL3 [4]): 149 nM
B5: Cpd #59 (peptide)
peptide: Ac-MSDC[Phe(4-CF3)]LQWNCPFD[dK](DOTA)-NH2
modifications: disulfide 4-10
SMILES: CSCC[C@H](NC(C)=O)C(=O)N[C@@H](CO)C(=O)N[C@@H](CC(=O)O)C(=O)N[C@H]1CSSC[C@@H](C(=O)N2CCC[C@H]2C(=O)N[C@@H](Cc2ccccc2)C(=O)N[C@@H](CC(=O)O)C(=O)N[C@H](CCCCNC(=O)CN2CCN(CC(=O)O)CCN(CC(=O)O)CCN(CC(=O)O)CC2)C(N)=O)NC(=O)[C@H](CC(N)=O)NC(=O)[C@H](Cc2c[nH]c3ccccc23)NC(=O)[C@H](CCC(N)=O)NC(=O)[C@H](CC(C)C)NC(=O)[C@H](Cc2ccc(C(F)(F)F)cc2)NC1=O

Kd [5]: > 30 nM
B6: Cpd #188 (peptide)
peptide: Ac-[Ala(piperidin-4-yl)]SDC[1Nal][NMeChg][PAF](DOTA)[Trp(7-Me)]NC[αMeP]FD-NH2
modifications: disulfide 4-10; reading uncertain; also: printed as Ac-[3-(4-piperidinyl)-Ala]-S-D-C(3)-(1Nal)-(NMe-Chg)-[PAF(DOTA)]-(7Me-W)-N-C(3)-(aMe-P)-F-D-CONH2; (3)=disulfide
